The target in the data set is RNA polymerase (RNAP), WT (E. coli, UniProt P0A7Z4;P0A8V2;P0A8T7;P0A800;P00579 1-329;1-1342;1-1407;2-91;1-613). Kind of data set: EMSA; no C protein; on ice (closed complex); EMSA: on ice 10 min, 3.5% native PAGE at 4 C; binding buffer not stated (transcription buffer: 40 mM Tris-Cl pH 8.0, 5 mM Mg acetate, 0.1 mM EDTA, 0.1 mM DTT, 100 mM KCl, 100 ug/ml BSA). To be noted: protein: recombinant, (Ni-NTA purified), chain copies: 2;1;1;1;1, label: 5' 32P. (In general: Mobility shift assays separate free from complexed probe on a gel.)

The mark [1] stands for this setting: 5' overhangs 4 nt (EcoRI AATT / BamHI GATC).

B1: P promoter 92mer (dsDNA)
DNA 1: AATTCACAGGGACAGTTACAGTTAACTGCCATAACCCCGGACGGCGGCTTTTCACAGGTATCCTTTTCAGACAGTGGTACAGCCACGCCCCG
DNA 2: GATCCGGGGCGTGGCTGTACCACTGTCTGAAAAGGATACCTGTGAAAAGCCGCCGTCCGGGGTTATGGCAGTTAACTGTAACTGTCCCTGTG
As to B1, the binding result under setting [1] was “binds”.

B2: tin7 P2-disrupted promoter 78mer (dsDNA)
DNA 1: AATTCCGGTTGCGCCCCAATAACCACACTCAACCCATGATGTTTGTTAAGATAGTGGCGAATTGATGCAAAGGAGGTG
DNA 2: GATCCACCTCCTTTGCATCAATTCGCCACTATCTTAACAAACATCATGGGTTGAGTGTGTGGTTATTGGGGCGCAACCGGG
As for B2, where the note is “5' overhangs (EcoRI AATT / BamHI GATC)”, the binding result is listed as “binds”.

B3: I promoter 92mer (dsDNA)
DNA 1: AATTCTTTCTTTCTCCAGTACTCAAATAGCATAACCCCAGATTTTCCCGCACCTCCCGCAAACTGACTGCTCACAAACCATGATGAGCAGCGG
DNA 2: GATCCCGCTGCTCATCATGGTTTGTGAGCAGTCAGTTTGCGGGAGGTGCGGGAAAATCTGGGGTTATGCTATTTGAGTACTGGAGAAAGAAAG
B3: under setting [1], the binding result is reported as “binds”.

B4: lys promoter 92mer (dsDNA)
DNA 1: AATTCATCCTGCCGGTTATTTCCTGTCACCATAATCCCGCACCTGCCACCTGATTTTTTAGACTGCCATCAGAGAATTTTTTCAGGGAAGCG
DNA 2: GATCCGCTTCCCTGAAAAAATTCTCTGATGGCAGTCTAAAAAATCAGGTGGCAGGTGCGGGATTATGGTGACAGGAAATAACCGGCAGGATG
B4: under setting [1], the binding result is listed as “binds”.
